Patent publication EP2670776B1

Molecular target: Knob F241R/F243S (knob Fc with F241R/F243S mutations) (human) [IgG part: P0DOX5]
Experiment: size exclusion chromatography, against wild-type knob Fc

Reduction in homodimer content: 64.5%
Substance: Knob F241R/F243S (knob Fc with F241R/F243S mutations) (from UniProt P0DOX5 223-449)
